Results taken from patent US20090203616A1.
No end group written: not given here.

Biological target: α9α10 subtype of the nicotinic acetylcholine receptor (nAChR) (rat) (UniProt P43144)
Experiment: cell-based or functional assay

α9α10 subtype of the nicotinic acetylcholine receptor (nAChR) (rat), sequence (P43144 26-479, chain 1 of 2): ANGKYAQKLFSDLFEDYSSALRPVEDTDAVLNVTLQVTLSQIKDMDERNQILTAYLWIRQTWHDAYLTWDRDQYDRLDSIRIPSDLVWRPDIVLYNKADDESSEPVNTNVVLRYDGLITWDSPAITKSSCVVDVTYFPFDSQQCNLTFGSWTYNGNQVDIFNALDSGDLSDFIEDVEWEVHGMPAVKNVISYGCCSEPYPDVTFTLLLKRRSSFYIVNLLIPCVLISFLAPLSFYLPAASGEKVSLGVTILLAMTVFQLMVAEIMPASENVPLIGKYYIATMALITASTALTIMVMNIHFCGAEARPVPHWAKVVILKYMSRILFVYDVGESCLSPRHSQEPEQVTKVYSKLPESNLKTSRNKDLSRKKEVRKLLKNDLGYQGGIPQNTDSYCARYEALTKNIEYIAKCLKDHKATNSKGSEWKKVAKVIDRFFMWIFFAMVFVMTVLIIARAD
α9α10 subtype of the nicotinic acetylcholine receptor (nAChR) (rat), sequence (Q9JLB5 25-447, chain 2 of 2, further chain): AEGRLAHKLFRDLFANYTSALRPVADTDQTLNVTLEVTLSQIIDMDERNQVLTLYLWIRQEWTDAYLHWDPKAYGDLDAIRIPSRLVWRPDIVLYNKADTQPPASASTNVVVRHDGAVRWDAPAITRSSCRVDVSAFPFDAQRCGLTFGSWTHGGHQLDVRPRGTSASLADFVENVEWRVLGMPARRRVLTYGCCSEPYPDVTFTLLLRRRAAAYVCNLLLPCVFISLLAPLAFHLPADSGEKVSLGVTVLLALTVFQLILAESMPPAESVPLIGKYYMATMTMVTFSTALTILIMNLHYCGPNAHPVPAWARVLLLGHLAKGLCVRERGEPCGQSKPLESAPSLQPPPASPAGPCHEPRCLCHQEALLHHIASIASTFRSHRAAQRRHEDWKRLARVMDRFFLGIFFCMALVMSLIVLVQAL

B1: RgIA-Cys-amide (peptide)
peptide: GCCSDPRCRYRC
modifications: not fully specified (C-terminus); ends and bridges not checked
**Q.** Which IC50 (activity on α9α10 nAChR, oocytes as in Example 1) does the source give for B1 here?
**A.** Its IC50 (activity on α9α10 nAChR, oocytes as in Example 1) is 7.8 nM.
